From patent US20220396632A1 (VERSEAU THERAPEUTICS, published 2022)
Each block holds one binder with its values, some of them ahead of it.

How the values were obtained:
[1] = target: T1, Biotin PSGL-1(42-62) E56A peptide (C-terminal Lys-biotin); experiment: ELISA; against wild-type PSGL-1 42-62
T1 peptide: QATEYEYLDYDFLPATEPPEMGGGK

[2] = target: T2, Biotin PSGL-1(42-62) E45A peptide (C-terminal Lys-biotin); experiment: ELISA; against wild-type PSGL-1 42-62
T2 peptide: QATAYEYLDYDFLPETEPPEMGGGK

[3] = target: T3, Biotin PSGL-1(42-62) Y46A peptide (C-terminal Lys-biotin); experiment: ELISA; against wild-type PSGL-1 42-62
T3 peptide: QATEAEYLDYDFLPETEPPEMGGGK

[4] = target: T4, Biotin PSGL-1(42-62) L54A peptide (C-terminal Lys-biotin); experiment: ELISA; against wild-type PSGL-1 42-62
T4 peptide: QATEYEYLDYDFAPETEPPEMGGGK

[5] = target: T5, Biotin PSGL-1(290-310) peptide (human, N-terminal acetyl; C-terminal Lys-biotin); experiment: ELISA, streptavidin-immobilized biotin peptide
T5 peptide: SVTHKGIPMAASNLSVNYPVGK
Procedure: (§1) A typical ELISA experiment involved binding of a single concentration or serially diluted mAb in assay buffer (3% BSA in PBS containing 0.05% Tween®20, pH 7.4) onto BSA blocked high binding microtiter plate half-wells (Corning Cat. #3690), which contained PSGL-1 protein or streptavidin-immobilized biotin peptide. After incubation for 45 min. at 37° C., the plate was washed 3 times with wash buffer (PBS containing 0.05% Tween®20, pH 7.4), and an appropriate HRP-conjugated secondary antibody added (25 ul/well) (HRP goat anti-mouse or anti-human IgG). After 45 min. incubation at 37° C., the plate was washed and antibody bound to plate-immobilized target was determined at A450 nm using HRP substrate (3,3′5,5′-tetramethylbenzidine (TMB)). For each antibody, duplicate values were averaged and assay background subtracted.

42-80 = target: T6, 42-80 (C-terminal Lys-biotin); experiment: ELISA, streptavidin-immobilized biotin peptide
T6 construct: also called Biotin PSGL-1(42-80) peptide
T6 peptide: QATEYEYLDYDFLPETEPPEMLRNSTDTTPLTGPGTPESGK
Procedure: as §1

[6] = target: T7, Biotin PSGL-1(42-62) peptide, unmodified (human, C-terminal Lys-biotin); experiment: ELISA, streptavidin-immobilized biotin peptide
T7 construct: Residues 42-62 followed by GGGK-biotin; also called WT; wild-type
T7 peptide: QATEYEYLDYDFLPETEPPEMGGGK
Procedure: as §1

[7] = target: T8, Biotin PSGL-1(105-125) peptide (human, N-terminal acetyl; C-terminal Lys-biotin); experiment: ELISA; against WT PSGL-1(ECD)-hFc1
T8 peptide: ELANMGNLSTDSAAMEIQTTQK
Procedure: as §1

[8] = target: T8, Biotin PSGL-1(105-125) peptide; experiment: ELISA, streptavidin-bound peptide
Procedure: as §1

[9] = target: T9, PSGL-1 endogenously expressed on HL-60 cells (UniProt Q14242 42-412); experiment: flow cytometry on HL-60 cells; against parent 19L04
T9 construct: whole, on cells
T9 sequence (looked up): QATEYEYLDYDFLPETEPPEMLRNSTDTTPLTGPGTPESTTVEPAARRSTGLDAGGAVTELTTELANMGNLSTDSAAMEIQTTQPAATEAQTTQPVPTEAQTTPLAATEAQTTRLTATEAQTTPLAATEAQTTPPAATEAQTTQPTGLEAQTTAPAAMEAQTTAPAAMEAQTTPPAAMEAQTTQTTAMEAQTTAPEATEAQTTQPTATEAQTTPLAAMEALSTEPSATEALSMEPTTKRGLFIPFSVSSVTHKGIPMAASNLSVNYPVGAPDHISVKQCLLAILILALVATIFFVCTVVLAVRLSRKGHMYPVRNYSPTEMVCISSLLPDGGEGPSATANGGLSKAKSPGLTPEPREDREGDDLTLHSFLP
Procedure: A typical flow cytometry assay was performed by resuspending HL-60 cells in FACS buffer (5% FBS and 0.05% Sodium Azide in PBS, pH 7.2) on ice, pelleting cells by centrifugation at 500×g for 3 min, washing cells with FACS buffer, and then blocking Fc receptors on the cells with Fc block (human TruStain FcX™, BioLegend Cat. #422302) on ice for 10 min. After washing, 50,000 cells/50 ul in FACS buffer was added to each well of a 96-well round bottomed plate (Costar, Cat. #3797), and 50 ul of serially diluted (0.06 nM-1.0 uM) test or isotype control antibody was added into duplicate wells. The plate was covered and incubated on ice for 1 h. After washing, Phycoerythrin (PE) conjugated anti-human IgG secondary antibody (Abcam; Cat. #ab99825) was added to each well and the plate incubated in the dark on ice for 30 min. After washing, the cells were fixed (1% paraformaldhyde).

[10] = target: T5, Biotin PSGL-1(290-310) peptide; experiment: ELISA, streptavidin-immobilized biotin peptide [cont.]
Procedure: as §1

[11] = target: T8, Biotin PSGL-1(105-125) peptide; experiment: as above
Procedure: as §1

[12] = target: T10, Biotin PSGL-1(42-62) D50A peptide (C-terminal Lys-biotin); experiment: ELISA; against wild-type PSGL-1 42-62
T10 peptide: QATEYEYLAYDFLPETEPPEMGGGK

[13] = target: T11, Biotin Y46,48,51(SO3) PSGL-1(42-62) peptide (human, sulfotyrosine at Y46, Y48 and Y51; C-terminal Lys-biotin); experiment: capture ELISA; against parent 18F02
T11 construct: also called fully sulfated N-terminal PSGL-1 peptide
T11 peptide: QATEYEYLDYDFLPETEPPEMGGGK
Procedure: A typical ELISA for N-terminal PSGL-1 reactive humanized mAbs binding to Y_{46,48,51}(SO₃) PSGL-1₍₄₂₋₆₂₎ involved coating high binding half-well plates (Corning Cat. #3690) with 3 ug/mL/25 ul per well of the mAbs or with an isotype hG4 control in PBS, pH 7.4, overnight at 4° C. […] Biotinylated Y_{46,48,51}(SO₃) PSGL-1₍₄₂₋₆₂₎ was added (25 ul per well) in duplicate at 2.8 uM in assay buffer (blocking buffer containing 0.05% tween 20) and serially diluted into test and control (just blocked) wells, and the plate incubated for 45 min at 37° C. The plate was washed ×3 and an appropriate HRP-conjugated streptavidin was added (25 ul per well; Jackson Immunoresearch, Cat. #016-030-084) and the plate was incubated for 45 min at 37° C. […] For each antibody, an EC50 value was determined from sigmoidal fitted peptide titration curve.

- EC50Ala/EC50 wt [1]: 22.3 fold
B1: 43B6 (antibody, V domains shown)
VH: EVQLQQSGPDLVKPGALVKISCKASGYSFTAYYIHWVKQSHGKSLEWIGRVNPNTGGTSYNPKFKGKAILNVDKSSSTAYMELRSLTSEDSAVYYCARSGSPYYRYDDWGQGTTLTVSS
VL: ENVLTQSPAIMSASPGEKVTMTCRASSTVNSTYLHWFQQKSGASPKLWIYGSSNLASGVPARFSGSGSGTSYSLTISSVEAEDAATYYCQQYSGYPLTFGAGTTLELK
notes: Control anti-PSGL-1 mAb, recombinant; only variable domains given; also called 43B3

- EC50Ala/EC50 wt [2]: 5.6 fold
- EC50Ala/EC50 wt [3]: 4.7 fold
B2: 16L15 (antibody, V domains shown)
VH: DVKLVESGGGLVKLGGSLKLSCAASGFTFSSYYMSWVRQTPEKRLEWVATISNGGGSTYYPDSVKDRFTISRDNAKNTLYLQMSSLNSEDTAVYYCAKPLYYSNPWFAYWGQGTLVTVSA
VL: DVLLTQTPLSLPVSLGDQASISCRSSQSIVHSNGNTYLEWYLQKPGQSPKLLIYKVSNRFSGVPDRFSGSGSGTDFTLKISRVEAEDLGVYYCFQGSHVPRTFGGGTKLEIK
notes: From mouse immunisation; only variable domains given

- EC50Ala/EC50 wt [4]: 14.4 fold
B3: 9F9 (antibody, V domains shown)
VH: EVQLVETGGGLVQPKGSLKLSCAASGFTFNTNAMNWVRQAPGKGLEWVARIRSKSNNYATYYADSVKDRFTISRDDTQSMIYLQMNNLKTEDTGMYYCVRGGSYWYFDVWGAGTTVTVSS
VL: DVLMTQTPLSLPVSLGDQASISCRSSQSIVNSNGNTYLEWYLQKPGQSPKLLIYKVSNRFSGVPDRFSGSGSGTDFTLKISRVEAEDLGVYYCFQGSHVPWTFGGGTKLEIK
notes: Control anti-PSGL-1 mAb, recombinant; only variable domains given; also called 9F6

- binding result [5]: no binding (tested: 10 nM)
- binding result (42-80): no binding (tested: 10 nM)
- binding result [6]: no binding (tested: 10 nM)
- EC50/EC50WTprot [7]: ~100 fold
- fold weaker binding than to PSGL-1(ECD)-hFc1 [8]: ~20 fold
B4: 16E17 (antibody, V domains shown)
VH: QIQLVQSGPELKKPGETVKISCKASGYAFTTYGMSWVKQAPGKGLKWMGWINTYSGVPKYADDFKGRFAFSLETSASTAYLHINNLKNEDTATYFCGRHYYGSSYFDYWGQGTTLTVSS
VL: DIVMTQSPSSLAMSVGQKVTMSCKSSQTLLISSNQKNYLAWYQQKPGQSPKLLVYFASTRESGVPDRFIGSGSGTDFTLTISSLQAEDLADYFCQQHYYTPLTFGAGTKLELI
notes: as for B2

- HL-60 EC50 (normalized) [9]: 1 fold
B5: 19L04 (antibody, IgG4, V domains shown)
VH: QIQLVQSGPELKKPGETVKISCKASGYTFTTYGMSWVKQAPGKGLKWMGWINTYSGVPTYADDFKGRFAFSLETSASTAYLQINNLKIEDTATYFCARHYYGSHYFDYWGQGTTLTVSS
VL: DIMMTQSPSSLAMSVGQKVTLRCKSSQSLLNSSNQKNYLAWYQQKPGQSPKLLVYFASTRESGVPVRFIGSGSGTDFTLTISSMQAEDLADYFCQQHYFSPLTFGAGTKLELK
notes: as for B2

- binding result [10]: no binding (tested: 10 nM)
- binding result [11]: no binding (tested: 10 nM)
B6: 18K07 (antibody, V domains shown)
VH: QIQLVQSGPELKKPGETVKISCEASGYTFTTYGMNWVKQAPGKGLKWMGWINTYSGVPTYADDFQGRFAFSVETSATTAYLQINNLKNEDAATYFCARSDDTYYGFAYWGQGTLVTVSA
VL: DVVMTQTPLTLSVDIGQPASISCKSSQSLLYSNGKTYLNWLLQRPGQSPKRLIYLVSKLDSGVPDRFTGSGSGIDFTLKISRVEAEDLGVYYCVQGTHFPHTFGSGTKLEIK
notes: as for B2

- EC50Ala/EC50 wt [12]: 35.6 fold
- N-term peptide EC50 (normalized) [13]: 1 fold
- binding result [10]: no binding (tested: 10 nM)
- binding result [11]: no binding (tested: 10 nM)
B7: 18F02 (antibody, V domains shown)
VH: QVQLQQPGAELVKPGASVKLSCKASGYTFTSYWMHWVKQRPGQGLEWIGMIHPNSGRTNYNEKFKSKATLTVDKSSSTAYMQLSSLTSEDSAVYYCARSDYWGQGTTLTVSS
VL: DIVMTQAAFSNPVTLGTSASISCRSSKSLLHSDGITYLYWFLQRPGQSPQLLIYRMSNLASGVPDRFSGSGSGTDFTLRISRVEAEDVGVYYCAQMLEFPRTFGGGTKLEIK
notes: as for B2
